Reference: US20260021140A1 (SCG CELL THERAPY PTE, published 2026)

Experiments:
[1] = biological target: T1, HBV surface antigen (HBsAg), S20-28, genotypes B and C peptide on HLA-A*02:01 (human); assay: cytokine release
T1 peptide: FLLTKILTI

[2] = biological target: S20 epitope peptide presented by HLA-A*02:01 on HepG2 cells (Hepatitis B virus, genotypes A and D; …); assay: cell-based or functional assay

Binder	binding result [1]	killing ratio on HepG2-LMS-LG cells (RTCA, 48 h, E:T 2:1, 1:2, 1:8) [2] [%]
A01 TCR (TCR, V domains shown) Valpha: QQGEEDPQALSIQEGENATMNCSYKTSINNLQWYRQNSGRGLVHLILIRSNEREKHSGRLRVTLDTSKKSSSLLITASRAADTASYFCATDERDDMRFGAGTRLTVKP Vbeta: GVIQSPRHEVTEMGQEVTLRCKPISGHDYLFWYRQTMMRGLELLIYFNNNVPIDDSGMPEDRFSAKMPNASFSTLKIQPSEPRDSAVYFCASSLNTEAFFGQGTRLTVV	recognises	–
C01 TCR (TCR, V domains shown) Valpha: QQGEEDPQALSIQEGENATMNCSYKTSINNLQWYRQNSGRGLVHLILIRSNEREKHSGRLRVTLDTSKKSSSLLITASRAADTASYFCATDAYGQNFVFGPGTRLSVLP Vbeta: GVIQSPRHEVTEMGQEVTLRCKPISGHDYLFWYRQTMMRGLELLIYFNNNVPIDDSGMPEDRFSAKMPNASFSTLKIQPSEPRDSAVYFCASGSNTEAFFGQGTRLTVV	recognises	–
B01 TCR (TCR, V domains shown) Valpha: QELEQSPQSLIVQEGKNLTINCTSSKTLYGLYWYKQKYGEGLIFLMMLQKGGEEKSHEKITAKLDEKKQQSSLHITASQPSHAGIYLCGADTSTDKLIFGTGTRLQVFP Vbeta: GVTQTPRYLIKTRGQQVTLSCSPISGHRSVSWYQQTPGQGLQFLFEYFSETQRNKGNFPGRFSGRQFSNSRSEMNVSTLELGDSALYLCASSHGGAYEQYFGPGTRLTVT	recognises	–
C01 TCR (HBV S20 TCR, modified, expressed on C01 TCR-T cells) (TCR, V domains shown) V domain 1: SQQGEEDPQALSIQEGENATMNCSYKTSINNLQWYRQNSGRGLVHLILIRSNEREKHSGRLRVTLDTSKKSSSLLITASRAADTASYFCATDAYGQNFVFGPGTRLSVLP V domain 2: GVIQSPRHEVTEMGQEVTLRCKPISGHDYLFWYRQTMMRGLELLIYFNNNVPIDDSGMPEDRFSAKMPNASFSTLKIQPSEPRDSAVYFCASGSNTEAFFGQGTRLTVVE	–	> 60
B01 TCR (HBV S20 TCR, modified, expressed on B01 TCR-T cells) (TCR, V domains shown) V domain 1: SQELEQSPQSLIVQEGKNLTINCTSSKTLYGLYWYKQKYGEGLIFLMMLQKGGEEKSHEKITAKLDEKKQQSSLHITASQPSHAGIYLCGADTSTDKLIFGTGTRLQVFP V domain 2: KAGVTQTPRYLIKTRGQQVTLSCSPISGHRSVSWYQQTPGQGLQFLFEYFSETQRNKGNFPGRFSGRQFSNSRSEMNVSTLELGDSALYLCASSHGGAYEQYFGPGTRLTVTE	–	> 60
